According to paper PMC3042988, “The activation mechanism of Irga6, an interferon-inducible GTPase contributing to mouse resistance against Toxoplasma gondii” (BMC Biology, 2011):
Where a chain is given by its changes, count along the chain named. Names may count otherwise.

B1: Irga6 (IIGP1), wild type, recombinant, GST cleaved off (enzyme, mouse)
chain: MGQLFSSPKSDENNDLPSSFTGYFKKFNTGRKIISQEILNLIELRMRKGNIQLTNSAISDALKEIDSSVLNVAVTGETGSGKSSFINTLRGIGNEEEGAAKTGVVEVTMERHPYKHPNIPNVVFWDLPGIGSTNFPPNTYLEKMKFYEYDFFIIISATRFKKNDIDIAKAISMMKKEFYFVRTKVDSDITNEADGKPQTFDKEKVLQDIRLNCVNTFRENGIAEPPIFLLSNKNVCHYDFPVLMDKLISDLPIYKRHNFMVSLPNITDSVIEKKRQFLKQRIWLEGFAADLVNIIPSLTFLLDSDLETLKKSMKFYRTVFGVDETSLQRLARDWEIEVDQVEAMIKSPAVFKPTDEETIQERLSRYIQEFCLANGYLLPKNSFLKEIFYLKYYFLDMVTEDAKTLLKEICL
notes: Irga6 (IIGP1), mouse immunity-related GTPase; also called WT Irga6; source: E. coli BL21, purified (glutathione Sepharose, GST cleaved off with thrombin, Superdex 75); not shown: GST, N-terminal, cleaved
B2: Irga6-E106Q (enzyme, mouse)
chain: B1 chain with E106Q
notes: Irga6 (IIGP1), mouse; mutant made in pGEX-4T-2-Irga6; source: E. coli BL21, purified (glutathione Sepharose, GST cleaved off with thrombin, Superdex 75); not shown: GST, N-terminal, cleaved
B3: Irga6-K169E (enzyme, mouse)
chain: B1 chain with K169E
notes: Irga6 (IIGP1), mouse; mutant made in pGEX-4T-2-Irga6; not shown: GST, N-terminal, cleaved
B4: Irga6-R210E (enzyme, mouse)
chain: B1 chain with R210E
notes: as for B3
B5: Irga6-D186N (enzyme, mouse)
chain: B1 chain with D186N
notes: Irga6 (IIGP1), mouse; mutant made in pGEX-4T-2-Irga6; also called G4-motif mutant; source: E. coli BL21, purified (glutathione Sepharose, GST cleaved off with thrombin, Superdex 75); not shown: GST, N-terminal, cleaved
B6: Irga6-E106A (enzyme, mouse)
chain: B1 chain with E106A
notes: as for B2
B7: Irga6-R31E-K32E (enzyme, mouse)
chain: B1 chain with R31E, K32E
notes: Irga6 (IIGP1), mouse; mutant made in pGEX-4T-2-Irga6; also called Arg31, Lys32 mutant; not shown: GST, N-terminal, cleaved
B8: Irga6-E106D (enzyme, mouse)
chain: B1 chain with E106D
notes: as for B2
B9: Irga6-E106N (enzyme, mouse)
chain: B1 chain with E106N
notes: as for B2
B10: Irga6-K246E (enzyme, mouse)
chain: B1 chain with K246E
notes: as for B3
B11: Irga6 with Lys101 mutated to glutamate (enzyme, mouse)
chain: B1 chain with K101E
notes: Irga6 (IIGP1), mouse; mutant made in pGEX-4T-2-Irga6; also called Lys101 mutant; K101E; source: E. coli BL21, purified (glutathione Sepharose, GST cleaved off with thrombin, Superdex 75); not shown: GST, N-terminal, cleaved
B12: Irga6-K176E (enzyme, mouse)
chain: B1 chain with K176E
notes: as for B3

Biological target: the molecule itself
Assay: light scattering; self-association (oligomerisation) of 80 μM Irga6 with 10 mM GTP at 37°C; B1 buffer (50 mM Tris/HCl pH 7.4, 5 mM MgCl2)/2 mM DTT; conventional light scattering at 350 or 600 nm

| Protein | binding result |
| --- | --- |
| B1 | binds |
| B2 | binds |
| B3 | binds |
| B4 | binds |
| B5 | binds |
| B6 | binds |
| B7 | binds |
| B8 | binds |
| B9 | binds |
| B10 | binds |
| B11 | binds |
| B12 | binds |
